# Measurements from paper PMC9482650, “Quantitative fragmentomics allow affinity mapping of interactomes” (Nature Communications, 2022).
# T1: CARD11, Q9BXL7
# T1 sequence (Q9BXL7 662-765, limits assumed, looked up): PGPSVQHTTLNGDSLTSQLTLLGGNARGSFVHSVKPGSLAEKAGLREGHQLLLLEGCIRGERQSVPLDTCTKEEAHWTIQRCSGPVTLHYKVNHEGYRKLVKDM
# T2: DFNB31_1, Q9P202
# T2 sequence (Q9P202 135-233, limits assumed, looked up): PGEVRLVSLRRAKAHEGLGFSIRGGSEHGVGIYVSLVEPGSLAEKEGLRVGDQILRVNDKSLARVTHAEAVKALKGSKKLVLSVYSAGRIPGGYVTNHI
# T3: DFNB31_3, Q9P202
# T3 sequence (Q9P202 811-907, limits assumed, looked up): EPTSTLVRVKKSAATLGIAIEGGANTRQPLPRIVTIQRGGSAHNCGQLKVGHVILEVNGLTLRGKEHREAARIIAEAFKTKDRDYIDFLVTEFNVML
# T4: DLG3_3, Q92796
# T4 sequence (Q92796 374-475, limits assumed, looked up): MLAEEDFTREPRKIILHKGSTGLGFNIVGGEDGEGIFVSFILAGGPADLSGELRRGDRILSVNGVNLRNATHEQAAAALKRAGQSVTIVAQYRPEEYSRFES
# T5: DVL3, Q92997
# T5 sequence (Q92997 244-331, limits assumed, looked up): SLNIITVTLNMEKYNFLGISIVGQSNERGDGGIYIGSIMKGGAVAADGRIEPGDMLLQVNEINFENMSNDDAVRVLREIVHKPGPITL
# T6: GRIP1_3, Q9Y3R0
# T6 sequence (Q9Y3R0 247-346, limits assumed, looked up): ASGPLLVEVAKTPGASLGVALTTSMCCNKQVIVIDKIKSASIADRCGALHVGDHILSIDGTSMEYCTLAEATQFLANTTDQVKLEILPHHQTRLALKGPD
# T7: GRIP1_7, Q9Y3R0
# T7 sequence (Q9Y3R0 999-1096, limits assumed, looked up): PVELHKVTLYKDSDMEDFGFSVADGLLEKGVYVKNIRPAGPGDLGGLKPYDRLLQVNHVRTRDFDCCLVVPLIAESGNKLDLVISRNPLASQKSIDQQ
# T8: LNX2_3, Q8N448
# T8 sequence (Q8N448 463-564, limits assumed, looked up): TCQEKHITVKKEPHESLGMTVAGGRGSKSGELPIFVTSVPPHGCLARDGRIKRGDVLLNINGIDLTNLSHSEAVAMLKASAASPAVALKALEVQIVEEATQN
# T9: PCLO, Q9Y6V0
# T9 sequence (Q9Y6V0 4491-4600, limits assumed, looked up): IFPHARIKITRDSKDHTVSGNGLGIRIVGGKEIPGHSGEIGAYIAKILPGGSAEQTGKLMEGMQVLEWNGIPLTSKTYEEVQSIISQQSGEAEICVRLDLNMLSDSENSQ
# T10: RHPN1, Q8TCX5
# T10 sequence (Q8TCX5 508-602, limits assumed, looked up): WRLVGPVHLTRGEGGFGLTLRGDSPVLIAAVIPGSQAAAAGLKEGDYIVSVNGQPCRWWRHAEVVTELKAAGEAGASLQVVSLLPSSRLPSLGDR
# T11: TIAM2, Q8IVF5
# T11 sequence (Q8IVF5 885-986, limits assumed, looked up): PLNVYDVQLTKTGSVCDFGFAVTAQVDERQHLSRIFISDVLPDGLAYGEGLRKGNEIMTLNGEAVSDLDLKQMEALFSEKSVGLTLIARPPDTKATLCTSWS
# Columns and labels:
# Assay in all cases: holdup assay
# Design in all cases: key: below the threshold = too weak to quantify, mostly under pKd 3.1 to 4
# [1] = molecular target: T1, CARD11, Q9BXL7
# [2] = molecular target: CASK, O14936
# [3] = molecular target: T2, DFNB31_1, Q9P202
# [4] = molecular target: T3, DFNB31_3, Q9P202
# [5] = molecular target: DLG1_1, Q12959
# [6] = molecular target: DLG1_2, Q12959
# [7] = molecular target: T4, DLG3_3, Q92796
# [8] = molecular target: DLG4_3, P78352
# [9] = molecular target: T5, DVL3, Q92997
# [10] = molecular target: FRMPD3, Q5JV73
# [11] = molecular target: GRID2IP_2, A4D2P6
# [12] = molecular target: T6, GRIP1_3, Q9Y3R0
# [13] = molecular target: T7, GRIP1_7, Q9Y3R0
# [14] = molecular target: Inadl_10, Q8NI35
# [15] = molecular target: Inadl_6, Q8NI35
# [16] = molecular target: T8, LNX2_3, Q8N448
# [17] = molecular target: MAGI1_2, Q96QZ7
# [18] = molecular target: MAGI2_3, Q86UL8
# [19] = molecular target: MAGI2_5, Q86UL8
# [20] = molecular target: MAST1, Q9Y2H9
# [21] = molecular target: NHERF2_2, Q15599
# [22] = molecular target: T9, PCLO, Q9Y6V0
# [23] = molecular target: PTPN3, P26045
# [24] = molecular target: T10, RHPN1, Q8TCX5
# [25] = molecular target: SCRIB_3, Q14160
# [26] = molecular target: T11, TIAM2, Q8IVF5
# [27] = molecular target: TJP2_1, Q9UDY2
# [28] = plain residues with an end cap or a label only (N-terminal biotin on a linker: ado-ado)
# [29] = plain residues with an end cap or a label only (N-terminal biotin on a linker: ttds)
# [30] = plain residues with an end cap or a label only (N-terminal biotin on a linker: ahx)
# Chain of CASK, O14936 (O14936 487-570): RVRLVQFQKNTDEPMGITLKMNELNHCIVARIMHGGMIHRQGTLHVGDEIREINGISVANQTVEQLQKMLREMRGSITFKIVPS
# Chain of MAGI2_5, Q86UL8 (Q86UL8 915-1017): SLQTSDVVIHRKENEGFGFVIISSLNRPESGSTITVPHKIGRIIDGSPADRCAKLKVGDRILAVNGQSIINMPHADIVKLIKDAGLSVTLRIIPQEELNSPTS
# Chain of Inadl_10, Q8NI35 (Q8NI35 1673-1763): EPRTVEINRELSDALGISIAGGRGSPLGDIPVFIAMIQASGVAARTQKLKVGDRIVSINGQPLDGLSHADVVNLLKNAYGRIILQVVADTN
# Chain of Inadl_6, Q8NI35 (Q8NI35 1058-1167): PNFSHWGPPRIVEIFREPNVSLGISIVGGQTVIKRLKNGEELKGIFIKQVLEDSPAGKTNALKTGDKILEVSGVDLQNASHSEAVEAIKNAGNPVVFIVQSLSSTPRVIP
# Chain of SCRIB_3, Q14160 (Q14160 999-1103): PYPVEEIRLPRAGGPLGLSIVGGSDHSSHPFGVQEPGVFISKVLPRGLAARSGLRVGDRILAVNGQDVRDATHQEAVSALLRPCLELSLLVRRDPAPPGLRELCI
# Chain of FRMPD3, Q5JV73 (Q5JV73 12-100): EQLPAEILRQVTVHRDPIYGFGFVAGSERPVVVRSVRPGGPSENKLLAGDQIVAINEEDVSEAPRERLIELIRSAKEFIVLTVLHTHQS
# Chain of MAST1, Q9Y2H9 (Q9Y2H9 962-1065): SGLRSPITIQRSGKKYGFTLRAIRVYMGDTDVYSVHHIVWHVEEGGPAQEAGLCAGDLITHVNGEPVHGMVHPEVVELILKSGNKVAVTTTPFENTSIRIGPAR
# Chain of NHERF2_2, Q15599 (Q15599 142-238): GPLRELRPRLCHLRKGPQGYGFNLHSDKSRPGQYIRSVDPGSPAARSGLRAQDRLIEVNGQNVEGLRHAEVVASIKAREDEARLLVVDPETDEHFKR
# Chain of TJP2_1, Q9UDY2 (Q9UDY2 24-128): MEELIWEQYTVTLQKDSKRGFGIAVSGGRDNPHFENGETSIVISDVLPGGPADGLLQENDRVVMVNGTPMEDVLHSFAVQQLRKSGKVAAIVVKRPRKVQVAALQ
# Chain of MAGI1_2, Q96QZ7 (Q96QZ7 456-580): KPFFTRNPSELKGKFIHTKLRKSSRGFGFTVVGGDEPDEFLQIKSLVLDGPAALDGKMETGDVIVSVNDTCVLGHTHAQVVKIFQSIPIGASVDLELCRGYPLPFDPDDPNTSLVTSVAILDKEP
# Chain of MAGI2_3, Q86UL8 (Q86UL8 600-682): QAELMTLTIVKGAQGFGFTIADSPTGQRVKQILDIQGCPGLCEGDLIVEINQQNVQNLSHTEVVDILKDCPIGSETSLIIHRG
# Chain of DLG4_3, P78352 (P78352 306-403): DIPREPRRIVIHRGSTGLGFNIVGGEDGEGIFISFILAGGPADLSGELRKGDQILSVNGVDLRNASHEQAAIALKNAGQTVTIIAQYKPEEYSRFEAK
# Chain of GRID2IP_2, A4D2P6 (A4D2P6 272-370): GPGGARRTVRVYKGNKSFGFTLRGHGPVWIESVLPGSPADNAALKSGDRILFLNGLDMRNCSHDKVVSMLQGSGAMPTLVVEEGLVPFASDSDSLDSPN
# Chain of PTPN3, P26045 (P26045 505-587): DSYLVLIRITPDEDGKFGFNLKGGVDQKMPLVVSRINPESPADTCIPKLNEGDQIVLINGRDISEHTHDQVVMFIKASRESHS
binder,measurement,setting,value
"EEPEERHTEL [CES2, O00748]",pKd,[1]; [28],below the threshold
same,pKd,[2]; [28],below the threshold
same,pKd,[3]; [28],3.6
same,pKd,[4]; [28],3.86
same,pKd,[5]; [28],below the threshold
same,pKd,[6]; [28],4.13
same,pKd,[7]; [28],below the threshold
same,pKd,[8]; [28],below the threshold
same,pKd,[9]; [28],below the threshold
same,pKd,[10]; [28],below the threshold
same,pKd,[11]; [28],4.46
same,pKd,[12]; [28],below the threshold
same,pKd,[13]; [28],below the threshold
same,pKd,[14]; [28],below the threshold
same,pKd,[15]; [28],3.87
same,pKd,[16]; [28],below the threshold
same,pKd,[17]; [28],below the threshold
same,pKd,[18]; [28],below the threshold
same,pKd,[19]; [28],4.4
same,pKd,[20]; [28],3.53
same,pKd,[21]; [28],4.63
same,pKd,[22]; [28],below the threshold
same,pKd,[23]; [28],4.94
same,pKd,[24]; [28],4.19
same,pKd,[25]; [28],4.89
same,pKd,[26]; [28],4.07
same,pKd,[27]; [28],below the threshold
"GGPKEEESPV [SLC16A1, P53985]",pKd,[1]; [29],below the threshold
same,pKd,[2]; [29],below the threshold
same,pKd,[3]; [29],3.5
same,pKd,[4]; [29],below the threshold
same,pKd,[5]; [29],below the threshold
same,pKd,[6]; [29],3.56
same,pKd,[7]; [29],below the threshold
same,pKd,[8]; [29],below the threshold
same,pKd,[9]; [29],below the threshold
same,pKd,[10]; [29],below the threshold
same,pKd,[11]; [29],below the threshold
same,pKd,[12]; [29],below the threshold
same,pKd,[13]; [29],below the threshold
same,pKd,[14]; [29],below the threshold
same,pKd,[15]; [29],below the threshold
same,pKd,[16]; [29],below the threshold
same,pKd,[17]; [29],below the threshold
same,pKd,[18]; [29],below the threshold
same,pKd,[19]; [29],3.62
same,pKd,[20]; [29],below the threshold
same,pKd,[21]; [29],below the threshold
same,pKd,[22]; [29],below the threshold
same,pKd,[23]; [29],4.25
same,pKd,[24]; [29],below the threshold
same,pKd,[25]; [29],below the threshold
same,pKd,[26]; [29],below the threshold
same,pKd,[27]; [29],below the threshold
"RTRQRNETQV [HPV51-E6, P26554]",pKd,[1]; [29],below the threshold
same,pKd,[2]; [29],below the threshold
same,pKd,[3]; [29],3.47
same,pKd,[4]; [29],below the threshold
same,pKd,[5]; [29],4.78
same,pKd,[6]; [29],5.13
same,pKd,[7]; [29],4.91
same,pKd,[8]; [29],4.75
same,pKd,[9]; [29],below the threshold
same,pKd,[10]; [29],below the threshold
same,pKd,[11]; [29],below the threshold
same,pKd,[12]; [29],below the threshold
same,pKd,[13]; [29],below the threshold
same,pKd,[14]; [29],below the threshold
same,pKd,[15]; [29],below the threshold
same,pKd,[16]; [29],below the threshold
same,pKd,[17]; [29],5.93
same,pKd,[18]; [29],4.02
same,pKd,[19]; [29],4.12
same,pKd,[20]; [29],4.23
same,pKd,[21]; [29],below the threshold
same,pKd,[22]; [29],below the threshold
same,pKd,[23]; [29],4.38
same,pKd,[24]; [29],3.7
same,pKd,[25]; [29],4.17
same,pKd,[26]; [29],below the threshold
same,pKd,[27]; [29],below the threshold
"QGRWDHETIV [TMEM215, Q68D42]",pKd,[1]; [30],below the threshold
same,pKd,[2]; [30],below the threshold
same,pKd,[3]; [30],3.86
same,pKd,[4]; [30],below the threshold
same,pKd,[5]; [30],4.84
same,pKd,[6]; [30],4.81
same,pKd,[7]; [30],3.87
same,pKd,[8]; [30],3.64
same,pKd,[9]; [30],3.69
same,pKd,[10]; [30],below the threshold
same,pKd,[11]; [30],below the threshold
same,pKd,[12]; [30],below the threshold
same,pKd,[13]; [30],3.51
same,pKd,[14]; [30],3.64
same,pKd,[15]; [30],3.98
same,pKd,[16]; [30],below the threshold
same,pKd,[17]; [30],3.84
same,pKd,[18]; [30],3.77
same,pKd,[19]; [30],4.44
same,pKd,[20]; [30],4.3
same,pKd,[21]; [30],below the threshold
same,pKd,[22]; [30],below the threshold
same,pKd,[23]; [30],4.19
same,pKd,[24]; [30],4.59
same,pKd,[25]; [30],4.06
same,pKd,[26]; [30],below the threshold
same,pKd,[27]; [30],3.68
"DPRNTQTSQI [ABRAXAS2, Q15018]",pKd,[1]; [29],below the threshold
same,pKd,[2]; [29],3.55
same,pKd,[3]; [29],4.06
same,pKd,[4]; [29],3.67
same,pKd,[5]; [29],3.49
same,pKd,[6]; [29],3.84
same,pKd,[7]; [29],3.66
same,pKd,[8]; [29],below the threshold
same,pKd,[9]; [29],below the threshold
same,pKd,[10]; [29],below the threshold
same,pKd,[11]; [29],4.24
same,pKd,[12]; [29],below the threshold
same,pKd,[13]; [29],below the threshold
same,pKd,[14]; [29],3.52
same,pKd,[15]; [29],below the threshold
same,pKd,[16]; [29],below the threshold
same,pKd,[17]; [29],3.52
same,pKd,[18]; [29],below the threshold
same,pKd,[19]; [29],below the threshold
same,pKd,[20]; [29],4.32
same,pKd,[21]; [29],3.6
same,pKd,[22]; [29],3.66
same,pKd,[23]; [29],3.77
same,pKd,[24]; [29],4.43
same,pKd,[25]; [29],4.01
same,pKd,[26]; [29],below the threshold
same,pKd,[27]; [29],below the threshold
